Earlier results on 1 substance are cited in paper PMC12655228.

This data set deals with HER2 (Homo sapiens) (UniProt P04626).

Consider Trastuzumab, for which the Kd (in general, the equilibrium constant for the complex coming apart) is 0.1 nM.
